These results are taken from paper PMC12520543, “An Apple Susceptibility‐Related LRR Receptor‐Like Kinase MdRLKT21 Activates Plant Immunity by Hijacking a Trans‐Kingdom Fungal microRNA‐Like RNA” (Advanced Science, 2025).

The assay deals with T1, GST-MdRFP1-His (apple (M. domestica), labeled with the Monolith NT Protein Labeling Kit RED).
T1 construct: MdRFP1, apple C3HC4-type RING finger protein 1, GenBank XP_017184215.2; Vector pGEX-6P-1; The results name GST-MdRFP1-His for the MST; the MST methods say only 'MdRFP1 was purified and labeled'; also called labeled MdRFP1; source: E. coli BL21 (DE3), purified (glutathione agarose and HisPur Ni-NTA resin are named for the set of recombinant proteins); not shown: GST, N-terminal, kept; His, …
The experiment in a line: MST; labeled MdRFP1 (Monolith NT Protein Labeling Kit RED) incubated with a gradient dilution of MdRLKT21-KD for 30 min at RT; standard treated capillaries; Monolith NT.115. To be noted: both partners purified.

T1 sequence (main, as listed by the source): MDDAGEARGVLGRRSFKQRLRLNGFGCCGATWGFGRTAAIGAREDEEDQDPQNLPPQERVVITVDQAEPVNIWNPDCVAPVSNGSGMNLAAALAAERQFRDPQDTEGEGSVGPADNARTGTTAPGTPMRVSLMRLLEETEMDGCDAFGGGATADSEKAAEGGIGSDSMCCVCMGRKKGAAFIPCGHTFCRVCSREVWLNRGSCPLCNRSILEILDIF

B1: GST-MdRLKT21-KD (domain or fragment)
chain: RVRSRAKEGKTGKEKVVKEVAEVVVVEEGEGQNGKFVVLDEGFGLDLEDLLRASAYVVGKSRSGITYRVVAGSGGKGPGAAPSVVAVRRLSEGDATWRLKEFEAEVEAIGKVVHPNIVRLRAYYYASDEKLLVTDFIRNGSLYNALHGGPSNSLPPLPWTARLKIAQGTARGLMYIHEHSTRKYVHGNIKSTKILLNDDLQPYISGFGLARLMLGTSKFTTSASRRQNSNESIVASGLVVPTSSTIYLAPEARISRSKFTQKCDVYSFGIVLLEILTGRLPDEGLENGGKGLESLVRKTFRDERPLSEIIDPALLQEVYAKKQVVEAFHIALNCTELDPELRPRMKTVSESLDRLKLQC
The Kd is the equilibrium constant for the complex coming apart. A low value points to a tighter complex. B1 had a Kd of 14 ± 4.24 nM.
